# Experimental data reported in the DeepSol protein solubility set.
# Assay: soluble on expression in E. coli; label from the status in PepcDB or PDB records
row,Sequence,soluble on expression in E. coli
1,MVSAPASASSSPASSSFQSFFWQAAARPRAEPKRQALKRITLMTTDKTSPYEIHDDRFRHLIVGNAELEELYSGCRWAEGPVWFADLNCLLFSDIPNERMLRWVPDGGISVFRQPSNFTNGNTRDRQGRLVSCEHGGRRVTRTEVDGSITVLADSYGGKRLNSPNDVVVKSDGSVWFTDPTYGILSDYEGYKAEPEQKTRNVYRLDPATGKIDIAIDDFVQPNGLAFSPDETKLYVADSSYSHDISRPRHIRVFDVVDGVRLANGREFCNLDNGLPDGFRLDTAGNLWTSAGDGVHCFAPDGRLIGKIKVPQTVANLTFGGPKKNRLFITATKSLYSVYVAATGAQTPLEHHHHHH,soluble
2,MVSETSEETLYCIGCGAAIQTTDPKAAGYTPNSALQKSLASEAQDLYCQRCFRLRHYNEIVPVGLTDDDFRHLLATIRDANALVVYVVDIFDLNGSIIPGLQRFVGDNPVLLVGNKEDVLPRQLRRTKLREWMNQQVRAQGIKPVDVALTSAKKGHSIDELLAMIEKYRRGRDVYVVGVTNVGKSTLINRIIANNTGLKDLITTSRFPGTTLDKIEIPLDDGHMMVDTPGIIHPEQMAHVLSGDDLKLVSPQREIRPKGFQLGNGQTLFLGGVARLDIVDTLKATGTVYVDNNLPLHRTRTENADNFYTKHVGELITPPTGDAVADFPPLVRHEFKVTEISDIVFEGLGWVTVAADTRVAAWAPKGVAVLTRPAMINKRLEHHHHHH,soluble
3,MVSSSSGLPSHRGPILSALYPGNGRGGYTASRGIHTSLLFRHRNAKLAWMIPRRLQPLLEARLEKVPVVVLTGPRQAGKTTLALEVAQRREALYLDLESEADRAKLSAPELYLEAHLGRLVILDEVHRMPGLFPLLRSLVDRARRRGLRNGLYLLLGSLAPEVSRQAGESLAGRASYLELSPFDLLEVGREAEPVLWLRGGFPESFLALEDEESFRWRMDFLRSYVEREIPLLGGRLPAEVLRRFLTMLAHLQGELLNASALARNLGLDGRTVNRYLDFLVDLYLLRRLPPLEANVGKRLVKSPKLYLRDSGLVHALLGIRTLEDLLAHPVVGRSYEGFVVENLLRVLPEGGEAYFYRTRAGAEVDLVLLLPGGRFWAVEVKRSLDPRPSRGFHEALKDLKPQEAFVIYPGGETFPVGEGVFAAPLGAVMERLWRG,soluble
4,MVSYQILLLLVSILPLTYSIRTSKWHFSGKLLCPLYTFKYHLEVFEEDYFRKTDDLLTNQTEVSSISPHLYKVDAEETDDGLDFGRHFEIYMLIIHDCNPDRYVKSLKVDWGKYHIDIEFVTFYALKFEIFSEVSEVKDIDVFGKGSAL,not soluble
5,MVTCGSIFIIRIACKDKKGQASGKDNKEKRVFRAVTGNKSESYFPFGHIFIFSQGATRTDEKSFLLSEDYEPKTVGLRCVFWRKHAREIFRFGSKNFYFSRHNEKIFAPRLFQPYSGFFSNDKREKVSMCHR,not soluble
6,MVTEKTLRTCEQGHEYYKSSDCPTCPVCEKERKPKESFLSLLSAPARRALEHRGIQTVEELSKYSEKEILKLHGMGPASLPKLKKVLEESWLSFK,not soluble
7,MVTETLSRKADYNANKLRKRLRRLVGTAIADFNMIEKGDRVMVCLSGGKDSYALLDILRNLQAHAPLDFELIAVNLDQKQPGFPEHVLPGYLSEINMPFRIVEQDTYSVVKRVIAEGKTTCSLCSRLRRGVLYRVATELGATKIALGHHRDDILETFFLNMFYGGKLKAMPPKLVSDDGCHVVIRPLAYCKEKDLAAYAWHAQFPIIPCNLCGSQPNLQRQVIKEMMQQWDKKYPGRLETMFTALQNIQLSHLADTSRYDFVGLKPHGIAIEEGDKAFDEEPLSVIPVDMDHDDDSTFEPENEHDGGAVQGGVI,not soluble
8,MVTKRIIPCLDVHNGRVVKGVNFVNIRDAGDPVEIASYYDKAGADELTFLDITASAEARNIMIDVVRRVAEQVFIPFTVGGGIRTVEDFREILKAGADKVSINSAAVKRPELISEAASRFGSQCVVVAIDAKRRDDNSGWDVYINGGRINTGKDAVEWAVEVEKLGAGEILLTSMDCDGTKKGYDIELTRKVSESVRIPVIASGGAGTMEHFREALVEGKADAVLAASLFHYREIEIMELKKYLKENGIEIRM,not soluble
9,MVTLASHLDACPDAAIWGSSKTENLGVEKIIVNVISNSNIRYVLVCGTESRGHLAGHSLLAIHANGIDEQGRITGSQGAIPFIENISGTAVERFQQQVTVLNRIGLNDPEEIRRIVEDYRDKGEAYPEEPMLVCAPKKRQTSFAVPTSGDVIISGEFVMDSKAGIIYTAESL,not soluble
10,MVTSKKCPTCHGKRLSTSVLKCKINNLDIADFTNLSIDDALKFIKKIDSPKANVIIEPLQQQLESLSYIGLNYLTLSRESTSLSGGESQRIKLIRHLNSALSDLVYIIDEPSIGLHPEDIQRINEIILSLKNKGNTVLVVEHDPDVIKIADYIIDLGPLAGKYGGDITFTGSYHELLNSTTHTGDALRRMHQLKSPNLSASNFINLKNVSRNNIKNMTVTLPEQAMTVVTGVAGSGKSSLIHTGLEALADTIFIDQKPAHASSRSNLLTYLNIFDDVRSYFSEVTGLKKSLFSYNSAGACPECHGKGIIKTELAFMPDFTQTCDVCHGKRYKPEVLDVKVEGYNIADILALTVDEAITFFNKNKDIAQPLQALKSTGLNYMTLGQTLDTLSGGEVQRVKLSKYLTKTVHQHIFVFDEPTTGLHEDDIPILIDCFKRLIDEHNTVVIIEHNLTMMTYADWIIDIGPFAGEKGGQLLYQGEPQGLLQINASLTAKHLKRYTERLEHHHHHH,soluble
11,MVVGGFGVGKTTMVRSVSEIRPLNTEETMTQAGEAVDDISEVRGKSATTVAFDFGRISLDARNVLYLFGAPGQERFWFLWDRLFSGTLGAVVLVDTRRIDDSWYAIDRLEHHGTPFIVACNDFGGPEHSPEAVREALDLDPRVPLVSCDARSRQSSKQVLITLVEHLQAHYAGPTARPRQEFALEHHHHHH,not soluble
12,MVVKIKGKVFVFGDNVNTDEIIPARYLNTSDPQELAKYCMEDARPGFGRRDDIKGSIIVAGENFGCGSSREHAPVAIKAAGISCVIAKSFARIFFRNAINIGLPIVELKEADEFEEGDIAEVDLENGVVRNLTKGKEYRIRPYPEFLMKIMEAGGWLEYCLKEVGE,soluble
13,MVVSAMAGLEENGSEPTAPRADPQGDPFLRTRFALPTRPGTFLRRERLVRHLDHALRTPLTMVNGAAGAGKTLLVADWAAGQDRSVAWLTTDAADQGCGTFWAYLLQALRACDVPLPAEVGFPADANRVDHTLLARLAADLSVRDRPVVVVLDEYDRVTDPEIADQLEFV,not soluble
14,MVVSIGVFDGVHIGHQKVLRTMKEIAFFRKDDSLIYTISYPPEYFLPDFPGLLMTVESRVEMLSRYARTVVLDFFRIKDLTPEGFVERYLSGVSAVVVGRDFRFGKNASGNASFLRKKGVEVYEIEDVVVQGKRVSSSLIRNLVQEGRVEEIPAYLGRYFEIEGIVHKDREFGRKLGFPTANIDRGNEKLVDLKRGVYLVRVHLPDGKKKFGVMNVGFRPTVGDARNVKYEVYILDFEGDLYGQRLKLEVLKFMRDEKKFDSIEELKAAIDQDVKSARNMIDDIINSKFEKEG,soluble
15,MVVVCASHIQPAIICRFTWLRFLMEIILIRHGKPTSANNPVLNAVDFTKWVRRYNFSDVSTNSRPDSILDEYKSHYIVSSDLERAIHSASIYTGQSPELTSKLYREMEIPRYKFPLRFKAMTWVYINRAFWMLGLKGSFESYRQAKIRAELASDHLVELAREQDKVILFGHGYLNLHIRRSLIKKGWKLNSKSNGFWGISSLEGLEHHHHHH,not soluble
16,MVYSWQHCPNTRSNTEAMMAHDWDEYAANWEKDPATHAFAQSVFEHLTKILSLQGKHILDFGCGTGLLSQRMSPFARDIVALDSSEAMIEELDRKELRNVEPVVDCLTRGLVAQHPAFRKQFDLVVASSVCAFLPNLQDVTDIIFTLVDEGGYFVHFDWLADGKSEIGLSTTEIESVLRNAGFSAVETRVAFDVTTAQGTQPVVVGIARK,not soluble
17,MVYVIGMGARGREGLSLKALRRLEEAEVLIGGRRHLAHFPDHPGEKVPVQGPLEALLDLAEARLKEGKKVAFLASGDPLFYGIGKRVLERFPEAEVHPAPTAFQEAFARLKLPWDQARFFSLHGRPLGGVLLELSLSPLSVVYTDPEHTPAGIARALLEMGVDARAHVAERLGEEDERVRSFAGLKEVAEERFLDPNVLILEAKGPLPPRLGFFPDEAFEQRMPKKGLITKREVRLLALGLLGLPPDGVLWDIGAGTGSVGIEAARLAPWGEVYAVEKNPESWPHIVENARRFGAFNLHLVKGEAPEALKGLPAPHAVFVGGSGGELEEILRVSLKALRPGGRLVVAAITLENLLAAYGFLKGTGLPLEGFQVQASRVVPLARYHRLEAQNPITLLAVTKEGA,soluble
18,MWNFTLISKVKISREVTMIASKFGIGQQVRHSLLGYLGVVVDIDPVYSLSEPSPDELAVNDELRAAPWYHVVMEDDNGLPVHTYLAEAQLSSELQDEHPEQPSMDELAQTIRKQLQAPRLRNLEHHHHHH,not soluble
19,MWSTIFFVFSTFVLIVDSGSVGLCRTECIEQNSRKIVRVHLKDQLVMAGLCNNNTQQTGSIVTPYVCHRNIGLWTLDELDEEGTVKFETLCPTPEQYPLELRATCPRVDAQHDDTPNEMDIDDYPNSGDTPLSVV,not soluble
20,MYDTEIPYEGKISIYTYFCKECGYRKTEVYSDEKRDPKKITIRIENPDDLRIIVYRSRRADVYIPEMEASIDSAEYSNGEITTIEGIIYRIGEKLDLLAADDQNNKKIASLRKRIDGIINGKFESFTLIIMDESGKSVVHSDKAMVESMD,soluble
21,MYEEFRDVITFQSYVEQSNGEGGKTYKWVDEFTAAAHVQPISQEEYYKAQQLQTPIGYNIYTPYDDRIDKKMRVIYRGKIVTFIGDPVDLSGLQEITRIKGKEDGAYVG,soluble
22,MYFMKSKNRFLLISLLSFSTSVFADVNLYGPGGPHVPLIKVAESFEKSQSKRVNITFGPQATWNDKAKKNADILFGASEHSALAIAEGHSERFSKFNIHPVFMREAIILVKKGNPKNIKGMADLLKPGIGIVVNDGAGVSNTSGTAVWEDSVGRMKNVEKLQAFRSNIHVFAPNSGSARKAFVDGEDIDAWITWVDWAIANPTIGDMVRMEDEYRIYRDFNVVLAKNPSSEAIDFFDYLTKSKDAEAIFQHYGWFK,not soluble
23,MYFRLESQFSINGSMIVLINGAEPSLESHVAFYETGTFTVEQGEMRMIELKYQSTMENIHAFLDVVTGAIDIHLSPCKSQETDIFYSNLAAGSHRIDIDLKTMMDNVSVLLKKNVSKLHKAKR,not soluble
24,MYHLKKILEVKQVNKTYSMDGNANYHVLKNIDLEVYEGEFVSVMGPSGSGKSTLLYNISGMDQMSSGSVKIDSKELSCMKEEELAKLRLTEIGFIFQQSNLLRNLNLFDNIILSAYLAKCESKKIVNKRALELMENMGISDIASHYITEASGGQLQRVSICRALINNPNIIFADEPTGALNLKSTEEVMQILLNINRDGTTIMLVTHDVKVAAKTERILFMADGEIVSEIQLGKLRNDDLKAREEKLLNWLAVLGF,not soluble
